A word on the pIC50: it is the IC50 on a negative log10 scale, so that one unit is a factor of ten. A lower pIC50 goes with a high IC50. In general, pKd refers to the negative decadic logarithm of the Kd, by convention in mol/L. Low readings indicate a large Kd, high ones a small Kd. The term koff denotes a measure of how fast the partners let go of each other. Lower therefore signals a long-lived complex. The kon is the rate constant with which the complex forms. Lower therefore signals slow association.

We go through seven substances from US20040166544A1.

pIC50, pKd: −log10 of the molar value.

Experiment [1] addresses c-Met (endogenous, on human cell lines 184B5, HCT-116, DU-145 and NCI H441) (human) (UniProt P08581). In words: cell-based or functional assay.
Experiment [2] has as its target c-Met/Fc Chimera (R&D Systems, catalog # 358-MT-100) (human) (UniProt P08581). In words: competition ELISA: displacement of biotinylated HGF from plate-coated c-Met/Fc chimera, IgG, n = 2. Background: In an ELISA, binding on a coated surface is turned into a signal by an enzyme label.
In experiment [3] the target is biotinylated c-Met-Fc (R&D Systems, #358-MT-100/CF, 5.1 biotin per c-Met molecule) (human) (UniProt P08581). In words: SPR (BIAcore), biotinylated c-Met-Fc captured on streptavidin chip, IgG as analyte, bivalent model.
biotinylated c-Met-Fc (R&D Systems, #358-MT-100/CF, 5.1 biotin per c-Met molecule) (human), sequence (P08581 25-932): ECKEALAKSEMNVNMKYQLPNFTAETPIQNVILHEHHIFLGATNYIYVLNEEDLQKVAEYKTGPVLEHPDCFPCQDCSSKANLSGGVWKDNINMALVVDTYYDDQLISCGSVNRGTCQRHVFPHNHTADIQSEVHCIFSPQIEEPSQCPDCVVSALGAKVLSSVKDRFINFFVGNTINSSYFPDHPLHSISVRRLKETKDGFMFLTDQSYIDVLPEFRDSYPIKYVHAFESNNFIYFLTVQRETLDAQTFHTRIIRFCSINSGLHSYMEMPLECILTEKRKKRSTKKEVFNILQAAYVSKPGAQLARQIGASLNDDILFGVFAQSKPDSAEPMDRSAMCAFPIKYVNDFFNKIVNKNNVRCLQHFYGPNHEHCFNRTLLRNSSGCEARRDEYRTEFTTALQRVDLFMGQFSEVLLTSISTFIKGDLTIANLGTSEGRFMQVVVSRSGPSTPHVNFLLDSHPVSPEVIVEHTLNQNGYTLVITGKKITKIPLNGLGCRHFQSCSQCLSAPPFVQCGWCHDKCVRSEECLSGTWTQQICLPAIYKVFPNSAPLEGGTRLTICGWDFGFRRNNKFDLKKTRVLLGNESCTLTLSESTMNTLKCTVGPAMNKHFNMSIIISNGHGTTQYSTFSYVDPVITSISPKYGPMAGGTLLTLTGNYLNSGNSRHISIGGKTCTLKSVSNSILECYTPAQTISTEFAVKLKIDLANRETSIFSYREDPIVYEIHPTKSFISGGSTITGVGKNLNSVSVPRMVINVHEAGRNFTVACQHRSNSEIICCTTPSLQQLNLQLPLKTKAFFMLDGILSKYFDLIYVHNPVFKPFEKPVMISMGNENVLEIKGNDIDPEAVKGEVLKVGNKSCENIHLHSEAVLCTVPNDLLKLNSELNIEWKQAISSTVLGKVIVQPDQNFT
Experiment [4] addresses c-Met/Fc Chimera (R&D Systems, catalog # 358-MT-100) (human) (UniProt P08581). In words: competition ELISA: displacement of biotinylated HGF from plate-coated c-Met/Fc chimera, Fab, n = 2.
The target is the same in experiment [5]. In words: SPR (BIAcore), c-Met-Fc captured on protein A CM5 chip, Fab as analyte, 1:1 Langmuir model.

c-Met/Fc Chimera (R&D Systems, catalog # 358-MT-100) (human), sequence (P08581 25-932, stated change not applied): as the sequence (P08581 25-932) above
c-Met (endogenous, on human cell lines 184B5, HCT-116, DU-145 and NCI H441) (human), sequence (P08581 25-1390): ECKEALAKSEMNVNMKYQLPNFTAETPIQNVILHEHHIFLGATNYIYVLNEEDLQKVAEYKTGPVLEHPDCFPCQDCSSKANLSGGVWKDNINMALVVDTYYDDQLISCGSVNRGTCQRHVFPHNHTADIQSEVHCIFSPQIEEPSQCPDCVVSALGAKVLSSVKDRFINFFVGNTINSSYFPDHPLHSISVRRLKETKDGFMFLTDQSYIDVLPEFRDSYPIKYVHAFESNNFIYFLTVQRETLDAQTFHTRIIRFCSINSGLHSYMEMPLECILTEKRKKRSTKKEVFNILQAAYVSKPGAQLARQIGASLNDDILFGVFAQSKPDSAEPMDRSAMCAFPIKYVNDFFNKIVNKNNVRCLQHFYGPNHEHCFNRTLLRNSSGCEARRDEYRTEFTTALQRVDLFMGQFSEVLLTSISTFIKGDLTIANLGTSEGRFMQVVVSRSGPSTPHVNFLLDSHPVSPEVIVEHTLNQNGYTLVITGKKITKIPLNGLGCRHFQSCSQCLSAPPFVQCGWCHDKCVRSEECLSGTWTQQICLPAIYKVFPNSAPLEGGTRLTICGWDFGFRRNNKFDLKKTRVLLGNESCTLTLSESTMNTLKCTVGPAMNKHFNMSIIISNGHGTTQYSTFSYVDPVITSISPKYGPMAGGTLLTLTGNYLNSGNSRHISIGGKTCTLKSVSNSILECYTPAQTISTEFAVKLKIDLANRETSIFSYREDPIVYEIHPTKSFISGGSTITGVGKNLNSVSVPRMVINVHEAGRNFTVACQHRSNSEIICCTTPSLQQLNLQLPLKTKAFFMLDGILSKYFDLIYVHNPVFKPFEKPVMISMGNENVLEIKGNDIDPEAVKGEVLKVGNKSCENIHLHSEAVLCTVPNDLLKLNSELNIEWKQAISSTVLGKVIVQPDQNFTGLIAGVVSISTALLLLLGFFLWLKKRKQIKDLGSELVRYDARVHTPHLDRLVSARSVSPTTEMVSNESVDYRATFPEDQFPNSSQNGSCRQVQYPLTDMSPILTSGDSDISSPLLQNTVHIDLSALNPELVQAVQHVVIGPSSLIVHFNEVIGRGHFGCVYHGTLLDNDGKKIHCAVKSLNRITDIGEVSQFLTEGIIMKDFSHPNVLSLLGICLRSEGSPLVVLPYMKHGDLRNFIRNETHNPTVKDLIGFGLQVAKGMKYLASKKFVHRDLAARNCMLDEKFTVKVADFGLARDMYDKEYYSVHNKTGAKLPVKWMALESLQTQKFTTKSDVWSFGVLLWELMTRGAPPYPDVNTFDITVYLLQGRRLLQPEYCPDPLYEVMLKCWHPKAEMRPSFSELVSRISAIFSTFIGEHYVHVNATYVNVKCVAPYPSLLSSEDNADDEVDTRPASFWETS

Turning to “recombinant human HGF (rhHGF, R&D Systems) (from UniProt P14210 32-728) (ligand)”, in experiment [1], the scatter assay on DU-145 cells, mean object area, 30 pM HGF alone, IgG series; the smaller the number, the more scattering (mean object area) is 324 and the scatter assay on DU-145 cells, mean object area, media alone with 30 pM HGF (no antibody or Fab), Fab series; the smaller the number, the more scattering (mean object area) amounted to 352.

In experiment [1], “c-Met antibody 1A3.3.13 (#HB-11894, ATCC Hybridoma), IgG” returned a scatter assay on DU-145 cells, mean object area, agonist (alone), 100 nM IgG; the smaller the number, the more scattering (mean object area) of 305 and a scatter assay on DU-145 cells, mean object area, antagonist (w/30 pM HGF), 100 nM IgG; the smaller the number, the more scattering (mean object area) of 254. Also, in experiment [2], the pIC50 is 9.30. In experiment [3], the pKd is 8.85, the koff worked out at 0.000289 s⁻¹ and the kon was determined as 210000 M⁻¹ s⁻¹.

In experiment [1], “HB-94 (#HB-94, ATCC Hybridoma) converted into a Fab fragment, Fab isotype control” returned a scatter assay on DU-145 cells, mean object area, agonist (alone), 100 nM Fab; the smaller the number, the more scattering (mean object area) of 592 and a scatter assay on DU-145 cells, mean object area, antagonist (w/30 pM HGF), 100 nM Fab; the smaller the number, the more scattering (mean object area) of 478.

With “HB94 (#HB-94, ATCC Hybridoma), IgG columns of Tables 9 and 10 (antibody)”, in experiment [1], the scatter assay on DU-145 cells, mean object area, agonist (alone), 100 nM, IgG column; the smaller the number, the more scattering (mean object area) came to 365 and the scatter assay on DU-145 cells, mean object area, antagonist (w/30 pM HGF), 100 nM, IgG column; the smaller the number, the more scattering (mean object area) is 199.

In experiment [1], “c-Met antibody 5D5.11.6 (#HB-11895, ATCC Hybridoma), IgG” yielded a scatter assay on DU-145 cells, mean object area, agonist (alone), 100 nM IgG; the smaller the number, the more scattering (mean object area) of 239 and a scatter assay on DU-145 cells, mean object area, antagonist (w/30 pM HGF), 100 nM IgG; the smaller the number, the more scattering (mean object area) of 241. In addition, in experiment [3], the pKd was 8.23, the koff turned out to be 0.000406 s⁻¹ and the kon stood at 68800 M⁻¹ s⁻¹.

As for “c-Met antibody 1A3.3.13 (#HB-11894, ATCC Hybridoma), Fab”, in experiment [1], the scatter assay on DU-145 cells, mean object area, agonist (alone), 100 nM Fab; the smaller the number, the more scattering (mean object area) was determined as 597 and the scatter assay on DU-145 cells, mean object area, antagonist (w/30 pM HGF), 100 nM Fab; the smaller the number, the more scattering (mean object area) is 400. This substance had a negative logarithm of the IC50 (pIC50) in experiment [4] of 8.17. Also, in experiment [5], the pKd is 8.20, the koff is 0.00313 s⁻¹ and the kon came to 497000 M⁻¹ s⁻¹.

“c-Met antibody 5D5.11.6 (#HB-11895, ATCC Hybridoma), Fab”: in experiment [1], the scatter assay on DU-145 cells, mean object area, agonist (alone), 100 nM Fab; the smaller the number, the more scattering (mean object area) turned out to be 632 and the scatter assay on DU-145 cells, mean object area, antagonist (w/30 pM HGF), 100 nM Fab; the smaller the number, the more scattering (mean object area) is 592. In experiment [4], the pIC50 was 8.01. In experiment [5], the pKd was 9.00, the koff came out at 0.000129 s⁻¹ and the kon was determined as 126000 M⁻¹ s⁻¹.
